From patent US20110098212A1 (LONDON SCHOOL OF HYGIENE AND TROPICAL MEDICINE, published 2011)

T1: chemokine receptor CCR6 (human, UniProt P51684 1-374)
T1 sequence (looked up): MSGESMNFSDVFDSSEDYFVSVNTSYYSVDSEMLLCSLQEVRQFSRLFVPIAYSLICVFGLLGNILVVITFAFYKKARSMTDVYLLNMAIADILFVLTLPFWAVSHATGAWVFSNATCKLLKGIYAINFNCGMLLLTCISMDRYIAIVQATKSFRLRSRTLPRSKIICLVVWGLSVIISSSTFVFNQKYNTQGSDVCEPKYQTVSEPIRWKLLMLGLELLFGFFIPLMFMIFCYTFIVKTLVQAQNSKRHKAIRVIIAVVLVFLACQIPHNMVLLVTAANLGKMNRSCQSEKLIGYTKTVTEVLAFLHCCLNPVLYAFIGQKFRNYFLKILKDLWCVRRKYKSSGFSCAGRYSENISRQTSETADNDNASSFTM

T2: chemokine receptor CCR1 (human, UniProt P32246 1-355)
T2 sequence (looked up): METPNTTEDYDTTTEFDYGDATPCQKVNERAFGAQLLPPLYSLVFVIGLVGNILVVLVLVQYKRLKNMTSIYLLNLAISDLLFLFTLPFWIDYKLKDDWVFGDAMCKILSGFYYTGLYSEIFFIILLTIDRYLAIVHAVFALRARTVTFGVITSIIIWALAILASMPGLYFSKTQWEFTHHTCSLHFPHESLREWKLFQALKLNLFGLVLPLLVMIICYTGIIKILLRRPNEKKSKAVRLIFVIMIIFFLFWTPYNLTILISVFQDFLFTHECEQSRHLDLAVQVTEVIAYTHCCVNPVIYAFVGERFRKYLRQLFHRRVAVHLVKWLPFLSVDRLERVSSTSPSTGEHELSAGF

T3: chemokine receptor CCR4 (human, UniProt P51679 1-360)
T3 sequence (looked up): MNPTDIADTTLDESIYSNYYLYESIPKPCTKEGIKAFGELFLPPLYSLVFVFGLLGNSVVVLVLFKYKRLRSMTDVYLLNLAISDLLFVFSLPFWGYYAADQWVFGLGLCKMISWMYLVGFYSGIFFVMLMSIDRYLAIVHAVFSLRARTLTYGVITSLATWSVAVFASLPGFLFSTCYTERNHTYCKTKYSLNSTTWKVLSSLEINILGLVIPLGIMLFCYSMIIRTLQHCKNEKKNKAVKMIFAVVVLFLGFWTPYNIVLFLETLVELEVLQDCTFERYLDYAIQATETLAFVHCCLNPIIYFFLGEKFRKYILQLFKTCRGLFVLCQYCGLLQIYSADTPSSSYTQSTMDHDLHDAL

B1: HHV-6 U83A, native full length mature chemokine (ligand)
chain: FICSSPDAELFSEKSRMSSSVLLGCLLCCMDWSAAVPGKTEPFRKLFDAIMIKKLKSCSAAYPSDLEQGSMCDMADASPTSLELGLSKLDKES
B2: CCL3/MIP-1alpha (ligand, human, UniProt P10147 27-92, looked up)
chain: ADTPTACCFSYTSRQIPQNFIADYFETSSQCSKPGVIFLTKRSRQVCADPSEEWVQKYVSDLELSA

How the values were obtained:
[1] = molecular target: human chemokine receptor CCR5 (human, UniProt P51681 1-352)
Sequence of human chemokine receptor CCR5 (P51681 whole entry): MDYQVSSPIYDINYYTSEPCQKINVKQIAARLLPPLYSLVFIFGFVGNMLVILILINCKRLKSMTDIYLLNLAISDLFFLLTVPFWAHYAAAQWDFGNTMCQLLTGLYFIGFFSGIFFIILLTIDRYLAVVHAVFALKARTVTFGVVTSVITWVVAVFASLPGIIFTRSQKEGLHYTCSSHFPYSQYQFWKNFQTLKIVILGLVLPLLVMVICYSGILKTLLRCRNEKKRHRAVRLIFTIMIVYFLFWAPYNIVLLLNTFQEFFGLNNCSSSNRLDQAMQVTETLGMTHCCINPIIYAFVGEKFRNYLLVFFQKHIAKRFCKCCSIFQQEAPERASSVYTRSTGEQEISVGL

chemokine receptor CCR6 = molecular target: T1, chemokine receptor CCR6; assay: cell-based or functional assay
chemokine receptor CCR8 = chemokine receptor CCR8 (human, UniProt P51685 1-355); assay: cell-based or functional assay
chemokine receptor CCR1 = molecular target: T2, chemokine receptor CCR1; assay: cell-based or functional assay
chemokine receptor CCR4 = molecular target: T3, chemokine receptor CCR4; assay: cell-based or functional assay

| Binder | IC50 [1] | EC50, calcium mobilisation in CCR6-CHO cells (chemokine receptor CCR6) | calcium mobilisation at 10 nM U83A, percent of the response to endogenous ligand (chemokine receptor CCR6) | calcium mobilisation at 100 nM U83A, percent of the response to endogenous ligand (chemokine receptor CCR6) | minimal effective dose, calcium mobilisation (chemokine receptor CCR6) | EC50, calcium mobilisation in CCR8-CHO cells (chemokine receptor CCR8) | calcium mobilisation at 10 nM U83A, percent of the response to endogenous ligand (chemokine receptor CCR8) | calcium mobilisation at 100 nM U83A, percent of the response to endogenous ligand (chemokine receptor CCR8) | EC50, calcium mobilisation in CCR1-CHO cells (chemokine receptor CCR1) | calcium mobilisation at 10 nM U83A, percent of the response to endogenous ligand (chemokine receptor CCR1) | minimal effective dose, calcium mobilisation (chemokine receptor CCR1) | EC50, calcium mobilisation in CCR4-CHO cells (chemokine receptor CCR4) | calcium mobilisation at 10 nM U83A, percent of the response to endogenous ligand (chemokine receptor CCR4) | calcium mobilisation at 100 nM U83A, percent of the response to endogenous ligand (chemokine receptor CCR4) | minimal effective dose, calcium mobilisation (chemokine receptor CCR4) |
| --- | --- | --- | --- | --- | --- | --- | --- | --- | --- | --- | --- | --- | --- | --- | --- |
| B1 | 0.11 nM | 10.3 nM | 35% | 80% | 7.5 nM | 6.42 nM | 65% | 85% | 9.17 nM | 60% | 7.5 nM | 8.96 nM | 50% | 84% | 7.5 nM |
| B2 |  |  |  |  |  |  |  |  | 2.75 nM |  |  |  |  |  |  |
